The results in this text go back to paper PMC8558838 (The Journal of Experimental Medicine, 2021).

Sequences and labels used below:
B4: human LIGHT extracellular domain (L83-V240) (ligand, UniProt O43557 83-240, looked up)
chain: LIQERRSHEVNPAAHLTGANSSLTGSGGPLLWETQLGLAFLRGLSYHDGALVVTKAGYYYIYSKVQLGGVGCPLGLASTITHGLYKRTPRYPEELELLVSQQSPCGRATSSSRVWWDSSFLGGVVHLEAGEKVVVRVLDERLVRLRDGTRSYFGAFMV
notes: human LIGHT (TNFSF14), extracellular domain, residues L83-V240; Homotrimer; The His tag is used for detection in the flow cytometry staining; also called hLIGHT; TNFSF14; not shown: His6 (HHHHHHG), N-terminal, kept

One series has as its target mBTLA protein. Put plainly: flow cytometry, cell–protein method. The following applies: parent: est. 1.0; read off a plot. A general note: Flow cytometry measures light scatter and fluorescence of single cells or particles in a stream.
Series [1] deals with human LIGHT extracellular domain (L83-V240) (human) (UniProt O43557). Kind of series: crystal structure; single-chain hCD160–hHVEM and hLIGHT mixed in a 1:1 molar ratio, 5 mg/ml in 10 mM Hepes pH 7.0, 150 mM NaCl; crystallised in 12% PEG3350, 4% tacsimate; 3.5 Å.
The target of series [2] is mouse CD160 (30I-154H) with C-terminal …, biotinylated (UniProt O88875). Kind of series: flow cytometry, cell–protein method.
For series [3], the target named is full-length mouse BTLA-EGFP, on cells (UniProt Q7TSA3). Kind of series: flow cytometry, cell–cell method.
For series [4], the target named is full-length mouse LIGHT, on cells (mLIGHT-IRES-EGFP) (UniProt Q9QYH9). Put plainly: flow cytometry, cell–cell method.
Series [5] addresses T1, mHVEM^−LIGHT (H86D-L90A) soluble protein, mHVEM-hIgG1 format (mouse, UniProt Q80WM9 39-206, H86D | L90A).
T1 construct: mouse HVEM (TNFRSF14) residues Q39-Q206 with H86D and L90A; also called mHVEM H86D-L90A double mutein; source: expressed in soluble form (Expi293, purified on Ni resin, as told for mHVEM-hIgG1); not shown: Fc (human IgG1), C-terminal, kept
T1 sequence (looked up): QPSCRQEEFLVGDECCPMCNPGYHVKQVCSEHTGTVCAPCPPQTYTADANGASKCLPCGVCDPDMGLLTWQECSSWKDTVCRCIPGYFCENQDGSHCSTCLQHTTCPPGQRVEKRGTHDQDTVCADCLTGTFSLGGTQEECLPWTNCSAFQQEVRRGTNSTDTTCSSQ
Put plainly: BLI; Octet; mHVEM-hIgG1 immobilised on the sensors, challenged with different concentrations of mLIGHT, mBTLA or mCD160; steady-state fit for mLIGHT, 1:1 Langmuir model for mBTLA and mCD160. The following applies: both partners purified. In general terms: Biolayer interferometry detects binding as a change in optical thickness at a sensor tip.

For series [6], the target named is mHVEM^−LIGHT (H86D-L90A) soluble protein, mHVEM-hIgG1 format (mouse, UniProt Q80WM9 39-206, H86D | L90A). Put plainly: BLI.
For series [7], the target named is T2, mHVEM (Q39-Q206)-human IgG1-hexa-His, WT (mouse, UniProt Q80WM9 39-206).
T2 chain: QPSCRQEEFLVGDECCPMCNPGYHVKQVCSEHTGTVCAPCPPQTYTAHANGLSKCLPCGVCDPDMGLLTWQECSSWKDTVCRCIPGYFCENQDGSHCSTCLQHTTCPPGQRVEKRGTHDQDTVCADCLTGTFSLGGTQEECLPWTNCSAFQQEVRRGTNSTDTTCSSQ
Kind of series: BLI.

Series [8] concerns the target T3, mHVEM (Q39-Q206)-human IgG1-hexa-His, WT (mouse, UniProt Q80WM9 39-206).
T3 construct: mouse HVEM (TNFRSF14) residues Q39-Q206; pcDNA 3.3; also called mHVEM-hIgG1; mHVEM^WT; source: Expi293, transfected, purified (Ni resin); not shown: Fc (human IgG1), C-terminal, kept
T3 sequence (looked up): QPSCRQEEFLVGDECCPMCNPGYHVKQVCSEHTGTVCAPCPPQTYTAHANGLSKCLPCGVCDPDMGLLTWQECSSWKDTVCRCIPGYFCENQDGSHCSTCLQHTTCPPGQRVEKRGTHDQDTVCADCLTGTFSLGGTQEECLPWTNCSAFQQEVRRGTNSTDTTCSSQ
Put plainly: BLI; Octet; mHVEM-hIgG1 immobilised on the sensors, challenged with different concentrations of mLIGHT, mBTLA or mCD160; steady-state fit for mLIGHT, 1:1 Langmuir model for mBTLA and mCD160. Conditions: both partners purified.

Series [9] concerns the molecule itself. Kind of series: crystal structure; hHVEM and hLIGHT mixed in a 1:1 molar ratio, 3 mg/ml in 10 mM Hepes pH 7.0, 150 mM NaCl; crystallised in 0.1 M Bis-Tris pH 5.5, 0.2 M MgCl2, 9% PEG3350; 2.30 Å.
The target of series [10] is B4. Kind of series: SEC; analytical SEC; equal molar equivalents of hLIGHT and hHVEM monomers mixed. The following applies: both partners purified. A general note: In gel filtration, larger molecules generally elute earlier.
The target in series [11] is T4, mHVEM^−BT/160 (G72R-V74A) soluble protein, mHVEM-hIgG1 format (mouse, UniProt Q80WM9 39-206, G72R | V74A).
T4 construct: mouse HVEM (TNFRSF14) residues Q39-Q206 with G72R and V74A; also called mHVEM G72R-V74A double mutein; source: expressed in soluble form (Expi293, purified on Ni resin, as told for mHVEM-hIgG1); not shown: Fc (human IgG1), C-terminal, kept
T4 sequence (looked up): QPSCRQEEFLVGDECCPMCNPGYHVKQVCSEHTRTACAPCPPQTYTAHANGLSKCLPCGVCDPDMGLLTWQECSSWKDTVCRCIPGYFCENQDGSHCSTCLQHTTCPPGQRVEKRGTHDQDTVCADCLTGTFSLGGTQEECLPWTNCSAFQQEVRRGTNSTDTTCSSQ
Put plainly: BLI; Octet; mHVEM-hIgG1 immobilised on the sensors, challenged with different concentrations of mLIGHT, mBTLA or mCD160; steady-state fit for mLIGHT, 1:1 Langmuir model for mBTLA and mCD160. Conditions: both partners purified.

Series [12] concerns the target mHVEM^−BT/160 (G72R-V74A) soluble protein, mHVEM-hIgG1 format (mouse, UniProt Q80WM9 39-206, G72R | V74A). Kind of series: BLI.

For the molecule “full-length WT mouse HVEM-mCherry, on cells (from UniProt Q80WM9) H86R; L90A”, the ratio to parent in the series with mBTLA protein worked out at 0.66.

For the molecule “single-chain hCD160–hHVEM fusion protein”, the stoichiometry N (hCD160–hHVEM per hLIGHT homotrimer) in series [1] is 3.

On to “full-length WT mouse HVEM-mCherry, on cells (from UniProt Q80WM9) G72A; V74D”, for which the ratio to parent with mBTLA protein was 0.01. For “full-length WT mouse HVEM-mCherry, on cells (from UniProt Q80WM9) H86D; L90R”, in the series with mBTLA protein, the ratio to parent is 0.63.

With “full-length WT mouse HVEM-mCherry, on cells (from UniProt Q80WM9) H86A; L90A”, the ratio to parent with mBTLA protein was found to be 0.78. Same read-out and setting: the same measure for “full-length WT mouse HVEM-mCherry, on cells (from UniProt Q80WM9) G72D; V74D”: 0.01; for “full-length WT mouse HVEM-mCherry, on cells (from UniProt Q80WM9) H86D; L90D”: 0.82.

For “full-length WT mouse HVEM-mCherry, on cells (from UniProt Q80WM9) A76A”, the figures for the ratio to parent in [2], in [3] and in [4] were 1, 1.1 and 1.2, respectively.

Consider “full-length WT mouse HVEM-mCherry, on cells (from UniProt Q80WM9) G72D; V74R”, for which the ratio to parent in the series with mBTLA protein is 0.01. The same measure, in the same setting: the same measure for “full-length WT mouse HVEM-mCherry, on cells (from UniProt Q80WM9) G72R; V74A”: 0.01. Still for that read-out and setting: the same measure for “full-length WT mouse HVEM-mCherry, on cells (from UniProt Q80WM9) G72D; V74A”: 0.02.

B1: mouse BTLA, soluble protein used as analyte in the Octet experiment (ligand, UniProt Q7TSA3 30-183, looked up)
chain: EKATKRNDEECPVQLTITRNSKQSARTGELFKIQCPVKYCVHRPNVTWCKHNGTICVPLEVSPQLYTSWEENQSVPVFVLHFKPIHLSDNGSYSCSTNFNSQVINSHSVTIHVRERTQNSSEHPLITVSDIPDATNASGPSTMEERPGRTWLLY
notes: mouse BTLA (CD272), soluble form; also called mBTLA
As usually defined, the Kd is a measure of binding affinity in units of concentration. Lower therefore signals higher affinity. In the case of B1, the “fold reduction of binding against WT mHVEM” value in series [5] is around 5 fold. Further, the Kd in series [6] came to 5.3 µM; in series [7], 1.1 µM.

B2: mouse CD160 (30I-154H) with C-terminal …, biotinylated (ligand)
chain: IHVTSSASQKGGRLDLTCTLWHKKDEAEGLILFWCKDNPWNCSPETNLEQLRVKRDPETDGITEKSSQLVFTIEQATPSDSGTYQCCARSQKPEIYIHGHFLSVLVTGNHTEIRQRQRSHPDFSH
modifications: biotin
For the molecule B2, the Kd in [6] was 33.5 µM; in [7], 11.6 µM.

B3: mouse CD160 (30I-154H) with C-terminal [residues removed], biotinylated (ligand, UniProt O88875 30-154, looked up)
chain: IHVTSSASQKGGRLDLTCTLWHKKDEAEGLILFWCKDNPWNCSPETNLEQLRVKRDPETDGITEKSSQLVFTIEQATPSDSGTYQCCARSQKPEIYIHGHFLSVLVTGNHTEIRQRQRSHPDFSH
modifications: biotin
notes: mouse CD160 residues 30I-154H; also called mCD160; mCD160-biotin
Turning to B3, the binding result in series [8] was “binds”. Moreover, the “fold reduction of binding against WT mHVEM” value in [5] was around 3 fold. What is called stoichiometry N is the number of molecules, sites or subunits per partner or assembly. For the molecule B4, the “stoichiometry N” value in [9] came to 3.

B5: human HVEM extracellular domain (L39-C162) (domain or fragment, UniProt Q92956 39-162, looked up)
chain: LPSCKEDEYPVGSECCPKCSPGYRVKEACGELTGTVCEPCPPGTYIAHLNGLSKCLQCQMCDPAMGLRASRNCSRTENAVCGCSPGHFCIVQDGDHCAACRAYATSSPGQRVQKGGTESQDTLC
notes: human HVEM (TNFRSF14), extracellular domain, residues L39-C162; positions numbered with initiation codon = 1; Cloned into pMT/BiP/V5-His for His-tag fusion protein production; also called hHVEM; TNFRSF14
For B5, in series [10], the “stoichiometry N” value is 3 hHVEM per hLIGHT homotrimer.

B6: single chain homotrimeric mLIGHT extracellular domain (G73-V239) connected by two (GGGGS)4 linkers (ligand, mouse)
chain: GGKGSWEKLIQDQRSHQANPAAHLTGANASLIGIGGPLLWETRLGLAFLRGLTYHDGALVTMEPGYYYVYSKVQLSGVGCPQGLANGLPITHGLYKRTSRYPKELELLVSRRSPCGRANSSRVWWDSSFLGGVVHLEAGEEVVVRVPGNRLVRPRDGTRSYFGAFMVGGGGSGGGGSGGGGSGGGGSGGKGSWEKLIQDQRSHQANPAAHLTGANASLIGIGGPLLWETRLGLAFLRGLTYHDGALVTMEPGYYYVYSKVQLSGVGCPQGLANGLPITHGLYKRTSRYPKELELLVSRRSPCGRANSSRVWWDSSFLGGVVHLEAGEEVVVRVPGNRLVRPRDGTRSYFGAFMVGGGGSGGGGSGGGGSGGGGSGGKGSWEKLIQDQRSHQANPAAHLTGANASLIGIGGPLLWETRLGLAFLRGLTYHDGALVTMEPGYYYVYSKVQLSGVGCPQGLANGLPITHGLYKRTSRYPKELELLVSRRSPCGRANSSRVWWDSSFLGGVVHLEAGEEVVVRVPGNRLVRPRDGTRSYFGAFMV
notes: mouse LIGHT (TNFSF14) extracellular domain G73-V239, first copy; linker, printed as (GGGGS)4; mouse LIGHT (TNFSF14) extracellular domain G73-V239, second copy; mouse LIGHT (TNFSF14) extracellular domain G73-V239, third copy; Three copies of the extracellular domain on one chain; source: Expi293, transfected, purified (Ni resin, SEC)
With B6, the binding result in series [8] and in series [11] was “binds” in each case. Moreover, the Kd in series [12] came out at 0.0293 µM; in series [6], 31.7 µM; in [7], 0.0162 µM.
